Experiment: yeast display, Sf9 membrane polyspecificity reagent, FACS + sequencing; frameworks hold sequencing errors
Procedure, shortened: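 Synthetic nanobody libraries on Saccharomyces cerevisiae BJ5465 were galactose-induced for 36–48 hours, stained 1 hour at 4 °C with 10% biotinylated, detergent-solubilized Sf9 membrane reagent and enriched on streptavidin microbeads. FACS then separated cells into low and high (top ~1%) gates by anti-HA (expression) and streptavidin (reagent binding) fluorescence. Genes were colony-PCR amplified, MiSeq 2 × 250 sequenced and CDR-length filtered. A clone's polyreactivity label is that of its gate of origin.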

Sequence	polyreactivity (PSR sort gate)
QVQLVESGGGLVQAGGSLRLSCAASGSTFSYNAMGCYRQAPGKESELVAAISRGDVSTYYADSVKGRFTISRDNAKNTVYLQMNSLKPEDTAVYYCAAYWYGSQYKWRYDYWGQGTQVTVSS	low polyreactivity
QVQLVESGGGLVQAGGSLRLSCAASGSTFSYNAMGWYRQAPGKEREFVAAITTSGVRTYYADSVKGRFTISRDNAKNTVYLQMNSLKPEDTAVYYCAARANYIFYGMDYWGQGTQVSVSS	high polyreactivity
QVQLVESGGGLVQAGGSLRLSCAASGSTFSYNAMGWYRQAPGKERELVAAINLRGGNTYYADSVKGRFTISRDNAKNTVYLQMNSLKPEDTAVYYCARTRRHSQNFDYWGQGTQVIVSS	high polyreactivity
QVQLVESGGGLVQAGGSLRLSCAASGSTFSYNAMGWYRQAPGKERELVAAISNGGSTNYADSVKGRFTISRDNAKNTVSLQMNSLKPEDTAVYYCAAHTYSELSWLVVYPYDYWGQGTQVTVSS	low polyreactivity
QVQLVESGGGLVQAGGSLRLSCAASGSTFSYNAMGWYRQAPGKERELVAAITSTGRTYYADSVKGRFTISRDNAKNTVYLQMNSLKPEDTAVYYCNKRARSEQYSYKYGYYYWGQGTQVTVSS	high polyreactivity
QVQLVESGGGLVQAGGSLRLSCAASGSTFSYNARGWYRQAPGKERELVAAITSGSSTNYADSVKGRFTISRDNAKNTVYLQMNSLKPEDTAVYYCAADGYQDKYYWLETWVGYWGQGTQVTVSS	low polyreactivity
QVQLVESGGGLVQAGGSLRLSCAASGSTFSYNDMGWYRQAPGKESELVADINVSVGRTYYADSVKGRFTISRDNAKNTVYLQMNSLTPEDTAVYYCNATLYTITSYVYAYDYWGQGTQVTVSS	low polyreactivity
QVQLVESGGGLVQAGGSLRLSCAASGSTFSYYAMGWYRQAPGKEREFVAAISRSGGRTYYADSVKGRFKISRDNAKNTVYLQLNSLKPEDTAVYYCATVYYYDFSRTHPWPGDYWGQGTQVTVSS	high polyreactivity
QVQLVESGGGLVQAGGSLRLSCAASGSTFSYYAMGWYRQAPGKERELVAAISRTAVSTYYADSVKGRFTISRDNAKNTVYLQMNSLKPEDTAVYYCAASHFHGYSLGYDYWGQGTQVTVSS	high polyreactivity
QVQLVESGGGLVQAGGSLRLSCAASGSTFSYYAMGWYRQAPGKERELVAAISSRGGSTYYADSVKGRFTISRDNAKNTVYLQMNSLKPEDTAVYYCNADHQFRSSVSGDHDYWGQGTQVTVSS	high polyreactivity
QVQLVESGGGLVQAGGSLRLSCAASGSTFSYYAMGWYRQAPGKERELVAAISSSGGSTYYADSVKGRFTISRDNAKNTVYLQMNSLKPEDTAVYYCNADSWRRRGRSRYDHWGQGTQVTVSS	low polyreactivity
QVQLVESGGGLVQAGGSLRLSCAASGSTFSYYAMGWYRQAPGKERELVAAISWSGGSKYYADSVKGRFTISRDNAKNTVYLQMNSLKPEDTAVYYCAVYYSYWFDYWGQGTQVTVSS	high polyreactivity
QVQLVESGGGLVQAGGSLRLSCAASGSTFSYYAMGWYRQAPGKERELVAAITSGGRTKYADSVKGRFTISRDNAKNTVYLQMNSLKPEDTAVYYCAKRIEKFSGSLAGRWYDYWGQGTQVTVSS	high polyreactivity
QVQLVESGGGLVQAGGSLRLSCAASGSTFSYYGMGSYRTAPGKERELVDAIDYSGDSTYDADSVKGRFTISRDNAKNTVYLQMNSLKPEDTAVYYCAADDYPWNRYAYWGQGTQVPVSS	low polyreactivity
QVQLVESGGGLVQAGGSLRLSCAASGSTFSYYTMGWYRQAPGKERELVAAITRRGDSTYADSVKGRFTISRDNAKTTVYLQMNSLKPEDTAVYYCAADASVGVSGMDYWGQGSQVTVSS	low polyreactivity
QVQLVESGGGLVQAGGSLRLSCAASGSTFTANAMGWYRQAPGKERELVAAISRSGGSTYYADSVKGRFTISRDNAKNTVYLQMNSLKPEDTAVYYCAADEYYQVSAYDYWGQGTQVTVSS	low polyreactivity
QVQLVESGGGLVQAGGSLRLSCAASGSTFTGNAMGWYRQAPGKERELVAAISRSGGSTFYADSVKGRFTISRDNAKNTVYLQMNSLKPEDTAVYYCATRYVVDMDYWGQGTQVTVSS	high polyreactivity
QVQLVESGGGLVQAGGSLRLSCAASGSTFTGNAMGWYRQAPGKERELVAAISRSGGSTFYADSVKGRFTISRDNAKYTVYLQMNSLKAEDTAVYYCATRYVVDMDYWGQGTQVTVSW	high polyreactivity
QVQLVESGGGLVQAGGSLRLSCAASGSTFTGNAMGWYRQAPGKERELVADISSGASTNYADSVKGRFTISRDNAKNTVYLQMNSLKPEDTAVFYCAADSWDYDSRMDYWGQGTQVTVSS	low polyreactivity
QVQLVESGGGLVQAGGSLRLSCAASGSTFTGNVMGWYRQAPGKERELVAAIDSGATTNYADSVKGRFTISRDNAKNTVYLQINSLKPEDTAVYYCATDGLDFWFIYDYWGQGTQVTVSS	low polyreactivity
QVQLVESGGGLVQAGGSLRLSCAASGSTFTGYAMGWYRQAPGKEREFVANITKRGGRTYYADSVKGRFTISRDNAKNTVYLQMNSLKPEDTAGYYCARDQGKLVVPYEYWGQATQVTVSS	high polyreactivity

Sequence	polyreactivity (PSR sort gate)
QVQLVESGGGLVQAGGSLRLSCAASGSTFTGYAMGWYRQAPGKERELVAAIDVSGATTYYADSVKGRFTISRDNAKNTVYLQMNSLKPEDTAVYYCATYATNSVAAYDYWGQGTQVTVSS	low polyreactivity
QVQLVESGGGLVQAGGSLRLSCAASGSTFTGYAMGWYRQAPGKERELVAAISISGGRTFYADSVKGRFTISRDNAKNTVYLQMNSLKPEDTAVYFCAAYLRGSKYSFDYWVQGTQVTVSS	high polyreactivity
QVQLVESGGGLVQAGGSLRLSCAASGSTFTGYAMGWYRQAPGNEREFVAAISRRGGSTYYADSVKGRFTISRDNAKNTVYLQMNSLKPEDTAVYYCAARGVGGTVPTRYDYWGQGTQVTVSS	high polyreactivity
QVQLVESGGGLVQAGGSLRLSCAASGSTFTINVMGWYRQAPGKERELVAAINGGGRTNYADSVKGRFTISRDNAKNTVYLQMNSLKPEDTAVYYCNARYGNESQGWEDYWGQGTKVTVSS	low polyreactivity
QVQLVESGGGLVQAGGSLRLSCAASGSTFTIYAIGWSRQAPGKERELVAGITRVGSTNYADSVKGRFTISRDNAKNTVYLQMNSLKPEDTAVYYCARRDLFQAGYEYWGQGTQVTVSS	low polyreactivity
QVQLVESGGGLVQAGGSLRLSCAASGSTFTLNAMVWYRQAPGKERELVADISWSSGRTYYADSVKGRFTISRDNAKNTVYLQMNSLKPEVSAVYYCATYDFWKVKFYAYYPEFDYWGQGTQVTVSS	low polyreactivity
QVQLVESGGGLVQAGGSLRLSCAASGSTFTLYALGWYRQAPGKERELVASITWSGSPYADSVKGRFTISRDNAKNTVYLQMNSLIPEDTAVYYCNTDPRSVVGWYDYWGQGTQVTVSS	low polyreactivity
QVQLVESGGGLVQAGGSLRLSCAASGSTFTLYAMGWYRQAPGKERELVATITGSGGSTNYADSVKGRFTISRDNAKNTVYLQMNSLKPEDTAVYYCAAYNPFYYKFDYWGQGTQVTVSS	high polyreactivity
QVQLVESGGGLVQAGGSLRLSCAASGSTFTLYVMGWYRQAPGKERELVAAITSSGDSTDYADSVKGRFTISRDNAKNTVYLQMNSLKPEDTAVYYCNVQPVYADHFTEFDYWGQGTQVTVSS	low polyreactivity
QVQLVESGGGLVQAGGSLRLSCAASGSTFTNNGMGWYRQAPGKERELVATISWDGDSTYYADSVKGRFTISRDNAKNSVYLQMNSLKPEDTAVYDCAADYRLHYSYPYEVVQYEYWGQGTQVTVSS	low polyreactivity
QVQLVESGGGLVQAGGSLRLSCAASGSTFTPNAMGSYRQAPGKERELDASISTTGGNTYYADSVKGRFTISRDNAKNTVYLQMNSLKPEDTAVYYCNAVRSVYLYGYIYGVDYWGQGTQVTVSS	low polyreactivity
QVQLVESGGGLVQAGGSLRLSCAASGSTFTPYAMGWYRQAPGKERELVAAISSTGGITYYADSVKGRFTISRDNAKNTVYLQMNSLKPEDTAVYYCAADAYYYGYEYWGQGTQVTVSS	high polyreactivity
QVQLVESGGGLVQAGGSLRLSCAASGSTFTPYAMGWYRQAPGKERELVAGITGNGGSTRYADSVKGRFTISRDNAKNTVYLQMNSLKTEDTAVYYCAARWTRERYRTSYYSWGQGTQVTVSS	high polyreactivity
QVQLVESGGGLVQAGGSLRLSCAASGSTFTPYVMGWYRQAPGKERELVASITGGGGSTYADSVKGRFTISRDNAKNTVYLQMNSLKPEDTAVYYCGARVWRSYNYWGQGTQVTVSS	high polyreactivity
QVQLVESGGGLVQAGGSLRLSCAASGSTFTPYVMGWYRQAPGKEREVVAAISNVGRTYYADSVKGRFTISRDNAKNTVYLQMNSLKPEDTAVYYCAVRRDKNYYDWGQGTQVTVSS	high polyreactivity
QVQLVESGGGLVQAGGSLRLSCAASGSTFTRNAMGWYRQAPGKERELVATISSGGSTNYADSVKGRFTISRDNAKNTVYLQMNSLKPEDTAVYYCDKRSLYRYYYWGQGTQVTVSS	high polyreactivity
QVQLVESGGGLVQAGGSLRLSCAASGSTFTRNAMGWYRQAPGKEWELVAAITSSGGSTYYAASVKGRFTISRDNAKNTVYLQMNSLKPEDNAVYYCAAYPHRPRDPELDHWGQGTQVTVSS	low polyreactivity
QVQLVESGGGLVQAGGSLRLSCAASGSTFTRNTMGWYKQAPGKERELVAAISRRGGRTDYADSVKGRFTISRDNAKNTVYLQMNSLKPEDTAVYYCAADPITVDQNPRYGYWGQGTQVTVSS	high polyreactivity
QVQLVESGGGLVQAGGSLRLSCAASGSTFTRNTMGWYRQAPGKERELVAVISRRGGSTYYADSVKGRFTISRDNAKNTVYLQMNSLKPEDTAVYYCNTAAYRLQYEYWGQGTQVTVSS	high polyreactivity
QVQLVESGGGLVQAGGSLRLSCAASGSTFTRYAMGSYRQAPGKERELVAAISRTGGSRTYYADSVKGRFTISRDNAKNTVYLQMNSLNPEDTAVYYCAKGYWRYLGFLYFFPARDYWGQGTQVTVSS	high polyreactivity

— the nanobody polyreactivity screen of Harvey et al. (2022)
